Source: article PMC9482650, “Quantitative fragmentomics allow affinity mapping of interactomes” (Nature Communications, 2022)

T1: APBA3_2, O96018
T1 sequence (O96018 480-570, limits assumed, looked up): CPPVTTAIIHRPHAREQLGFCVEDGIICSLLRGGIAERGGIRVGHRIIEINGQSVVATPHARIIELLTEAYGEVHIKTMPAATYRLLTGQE

T2: MPDZ_6, O75970
T2 sequence (O75970 1003-1099, limits assumed, looked up): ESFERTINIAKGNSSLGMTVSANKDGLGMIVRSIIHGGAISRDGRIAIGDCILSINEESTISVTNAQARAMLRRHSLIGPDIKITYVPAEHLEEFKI

T3: NHERF1_1, O14745
T3 sequence (O14745 9-104, limits assumed, looked up): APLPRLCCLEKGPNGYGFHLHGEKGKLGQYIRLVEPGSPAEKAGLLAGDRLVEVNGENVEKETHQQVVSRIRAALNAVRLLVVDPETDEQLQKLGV

T4: PARD6G, Q9BYG4
T4 sequence (Q9BYG4 153-261, limits assumed, looked up): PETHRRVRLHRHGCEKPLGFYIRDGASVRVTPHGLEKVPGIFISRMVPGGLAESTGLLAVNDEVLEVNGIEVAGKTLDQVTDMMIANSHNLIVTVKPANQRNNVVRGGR

T5: PDLIM3, Q53GG5
T5 sequence (Q53GG5 1-94, limits assumed, looked up): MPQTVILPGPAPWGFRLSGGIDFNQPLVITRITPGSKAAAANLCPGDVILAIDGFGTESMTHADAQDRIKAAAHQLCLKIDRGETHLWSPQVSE

T6: PDZD4, Q76G19
T6 sequence (Q76G19 125-224, limits assumed, looked up): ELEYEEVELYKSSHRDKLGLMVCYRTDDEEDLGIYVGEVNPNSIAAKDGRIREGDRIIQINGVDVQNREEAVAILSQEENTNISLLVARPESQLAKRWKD

T7: PDZD7_2, Q9H5P4
T7 sequence (Q9H5P4 205-303, limits assumed, looked up): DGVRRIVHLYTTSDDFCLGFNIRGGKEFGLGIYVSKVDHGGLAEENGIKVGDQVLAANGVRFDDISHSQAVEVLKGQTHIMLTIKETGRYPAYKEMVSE

T8: PREX2_2, Q70Z35
T8 sequence (Q70Z35 672-764, limits assumed, looked up): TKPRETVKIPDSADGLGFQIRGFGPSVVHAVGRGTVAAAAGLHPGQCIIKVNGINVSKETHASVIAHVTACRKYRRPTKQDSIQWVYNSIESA

T9: SHANK2, Q9UPX8
T9 sequence (Q9UPX8 621-730, limits assumed, looked up): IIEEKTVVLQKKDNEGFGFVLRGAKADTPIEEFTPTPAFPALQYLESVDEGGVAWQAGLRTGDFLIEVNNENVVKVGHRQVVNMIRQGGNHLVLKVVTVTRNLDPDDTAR

T10: TJP3_2, O95049
T10 sequence (O95049 190-282, limits assumed, looked up): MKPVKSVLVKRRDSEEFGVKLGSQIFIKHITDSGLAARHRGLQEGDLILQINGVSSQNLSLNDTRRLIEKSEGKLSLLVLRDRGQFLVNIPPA


How the values were obtained:
Assay in all cases: holdup assay
Set-up in all cases: key: below the threshold = too weak to quantify, mostly under pKd 3.1 to 4
Conditions in all cases: plain residues with an end cap or a label only (N-terminal biotin on a linker: ttds)
APBA3_2, O96018 = biological target: T1, APBA3_2, O96018
GRIP2_2, Q9C0E4 = biological target: GRIP2_2, Q9C0E4
MAGI1_6, Q96QZ7 = biological target: MAGI1_6, Q96QZ7
MPDZ_6, O75970 = biological target: T2, MPDZ_6, O75970
NHERF1_1, O14745 = biological target: T3, NHERF1_1, O14745
O00233 = biological target: O00233
O60759 = biological target: O60759
O75970 = biological target: O75970
PARD6G, Q9BYG4 = biological target: T4, PARD6G, Q9BYG4
PDLIM3, Q53GG5 = biological target: T5, PDLIM3, Q53GG5
PDZD4, Q76G19 = biological target: T6, PDZD4, Q76G19
PDZD7_2, Q9H5P4 = biological target: T7, PDZD7_2, Q9H5P4
PREX2_2, Q70Z35 = biological target: T8, PREX2_2, Q70Z35
PTPN13_2, Q12923 = biological target: PTPN13_2, Q12923
Q12923 = biological target: Q12923
Q13009 = biological target: Q13009
Q5TCQ9 = biological target: Q5TCQ9
Q8IUC4 = biological target: Q8IUC4
Q92614 = biological target: Q92614
Q96HC4 = biological target: Q96HC4
Q96JY6 = biological target: Q96JY6
Q96SB3 = biological target: Q96SB3
Q9Y3R0 = biological target: Q9Y3R0
RGS3, P49796-9 = biological target: RGS3, P49796-9
RIMS1, Q86UR5 = biological target: RIMS1, Q86UR5
RIMS2, Q9UQ26 = biological target: RIMS2, Q9UQ26
SHANK2, Q9UPX8 = biological target: T9, SHANK2, Q9UPX8
TJP3_2, O95049 = biological target: T10, TJP3_2, O95049

Sequence of RGS3, P49796-9 (P49796 other isoform, or with tags, fused parts or gaps): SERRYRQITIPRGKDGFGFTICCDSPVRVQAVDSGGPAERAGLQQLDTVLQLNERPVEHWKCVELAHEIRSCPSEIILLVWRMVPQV
Sequence of RIMS1, Q86UR5 (Q86UR5 584-692): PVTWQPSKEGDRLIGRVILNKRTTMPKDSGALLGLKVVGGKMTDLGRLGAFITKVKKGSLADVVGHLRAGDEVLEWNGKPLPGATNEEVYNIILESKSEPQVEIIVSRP
Sequence of GRIP2_2, Q9C0E4 (Q9C0E4 137-245): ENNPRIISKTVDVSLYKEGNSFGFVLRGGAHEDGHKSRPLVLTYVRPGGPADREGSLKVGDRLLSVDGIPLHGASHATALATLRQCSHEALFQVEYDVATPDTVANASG
Sequence of PTPN13_2, Q12923 (Q12923 1363-1462): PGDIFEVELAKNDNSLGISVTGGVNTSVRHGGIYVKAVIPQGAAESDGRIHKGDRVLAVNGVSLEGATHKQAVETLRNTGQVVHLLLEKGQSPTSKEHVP
Sequence of MAGI1_6, Q96QZ7 (Q96QZ7 1146-1238): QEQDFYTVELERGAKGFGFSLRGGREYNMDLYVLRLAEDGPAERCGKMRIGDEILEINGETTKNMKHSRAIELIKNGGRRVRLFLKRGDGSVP
Sequence of RIMS2, Q9UQ26 (Q9UQ26 637-758): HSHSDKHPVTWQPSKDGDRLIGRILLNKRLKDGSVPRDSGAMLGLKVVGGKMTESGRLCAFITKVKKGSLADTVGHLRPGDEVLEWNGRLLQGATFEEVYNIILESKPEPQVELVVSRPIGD

pKd (APBA3_2, O96018) | pKd (GRIP2_2, Q9C0E4) | pKd (MAGI1_6, Q96QZ7) | pKd (MPDZ_6, O75970) | pKd (NHERF1_1, O14745) | pKd (O00233) | pKd (O60759) | pKd (O75970) | pKd (PARD6G, Q9BYG4) | pKd (PDLIM3, Q53GG5) | pKd (PDZD4, Q76G19) | pKd (PDZD7_2, Q9H5P4) | pKd (PREX2_2, Q70Z35) | pKd (PTPN13_2, Q12923) | pKd (Q12923) | pKd (Q13009) | pKd (Q5TCQ9) | pKd (Q8IUC4) | pKd (Q92614) | pKd (Q96HC4) | Binder | also measured
below the threshold | 4.28 | below the threshold | below the threshold | 5.23 | below the threshold | below the threshold | below the threshold | below the threshold | below the threshold | below the threshold | below the threshold | below the threshold | below the threshold | below the threshold | below the threshold | below the threshold | below the threshold | below the threshold | below the threshold | HRTCYLVTQL [ASIC3, Q9UHC3] | pKd (Q96JY6): below the threshold; pKd (Q96SB3): below the threshold; pKd (Q9Y3R0): below the threshold; pKd (RGS3, P49796-9): 4.32; pKd (RIMS1, Q86UR5): below the threshold; pKd (RIMS2, Q9UQ26): below the threshold; pKd (SHANK2, Q9UPX8): 4.93; pKd (TJP3_2, O95049): below the threshold
4.47 | below the threshold | below the threshold | below the threshold | below the threshold | below the threshold | below the threshold | below the threshold | below the threshold | below the threshold | below the threshold | below the threshold | below the threshold | 4.4 | below the threshold | below the threshold | below the threshold | below the threshold | below the threshold | below the threshold | DPLTPSRSQL [DGKK, Q5KSL6] | pKd (Q96JY6): below the threshold; pKd (Q96SB3): below the threshold; pKd (Q9Y3R0): below the threshold; pKd (RGS3, P49796-9): below the threshold; pKd (RIMS1, Q86UR5): below the threshold; pKd (RIMS2, Q9UQ26): below the threshold; pKd (SHANK2, Q9UPX8): below the threshold; pKd (TJP3_2, O95049): below the threshold
